Kd and FRET efficiency data for two molecules are collected here from doi:10.1101/2022.04.07.487468.

The target in assay [1] is memGFP (zebrafish | not stated). Put plainly: fluorescence cross-correlation spectroscopy.
The target in assay [2] is Ror2-mCherry (not stated (xRor2 or zebrafish Ror2 cDNA cloned)). The experiment in a line: fluorescence cross-correlation spectroscopy.
Assay [3] concerns the target mCherry-xRor2 (not stated (prefix x in xRor2; Xenopus from memory)). Put plainly: FRET or BRET.
For assay [4], the target named is Ror2-mCherry (not stated (xRor2 or zebrafish Ror2 cDNA cloned)). Put plainly: fluorescence cross-correlation spectroscopy. This is another data set of the same source.
Assay [5] deals with zfRor2-ΔCRD-mCherry (zebrafish). Put plainly: fluorescence cross-correlation spectroscopy.
For assay [6], the target named is Ror2-mCherry (not stated (xRor2 or zebrafish Ror2 cDNA cloned)). The experiment in a line: fluorescence cross-correlation spectroscopy. This is another data set of the same source.

Like-named read-outs stand apart in the source and are kept apart here.

Turning to cytosolic mCherry, the equilibrium dissociation constant (Kd) in assay [1] is over 9.3 µM.

B1: zfWnt5b-GFP (ligand)
chain: QLLVVANSWWSLAMNPIQRPEMYIIGAQPLCSQLTGLSQGQRKLCQLYQDHMVYIGEGAKTGIKECQYQFRQRRWNCSTVDNTSVFGRVMHIGSRETAFTYAVSAAGVVNAVSRACREGELSTCGCSRAARPRDLPRDWLWGGCGDNVNYGYRFAREFVDAREREKNYPRGSVEHARTLMNLQNNEAGRMAVYNLANVACKCHGVSGSCSLKTCWLQLADFRRVGEFLKEKYDSAAAMRINRRGKLELVNNRFNPPTGEDLVYIDPSPDYCLRNETTGSLGTQGRLCNKTSEGMDGCELMCCGRGYDQFKTYKHERCHCKFHWCCYVKCKRCTSLVDQFVCK
As to B1, the Kd was 3.56 µM in assay [2], 0.311 to 0.476 µM in assay [4], over 6.68 µM in assay [5] and 0.45 µM in assay [6]. For the same molecule, the FRET efficiency in assay [3] lay in the range of 11.3 to 13%.
